Among the data in the supplement of paper PMC9233669 are self-aminoacylation values, retold here.

One data set deals with biotinyl-Val-oxazolone. The data set can be described thus: self-aminoacylation, catalytic enhancement (BVO) (fold over background); higher = more active; k-Seq, kA / k0A0; sequences stand for … in GGGAAUGGAUCCACAUCUACGAAUUC…UUCACUGCAGACUUGACGAAGCUG
The essentials: (§1)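 Each biotinyl-aminoacyl-oxazolone, at 2–1250 μM, was incubated with mutagenized RNA pools (0.43 μM) carrying a 21-nt variable region. The 50 μL reactions contained HEPES/NaCl/KCl/MgCl2/CaCl2 buffer with 5% acetonitrile at pH 6.9–7.0 and ran for 90 minutes at room temperature. After streptavidin capture, RNA was measured by qPCR in triplicate and by Illumina sequencing, and catalytic enhancement was calculated as median kA over the uncatalyzed rate from a pseudo-first-order fit of per-sequence fraction reacted.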

In a further data set the test system is biotinyl-Trp-oxazolone. Nature of the data set: self-aminoacylation, catalytic enhancement (BWO) (fold over background); higher = more active; k-Seq, kA / k0A0; sequences stand for … in GGGAAUGGAUCCACAUCUACGAAUUC…UUCACUGCAGACUUGACGAAGCUG
The essentials:
as §1

In the next data set the test system is biotinyl-Met-oxazolone. The data set can be described thus: self-aminoacylation, catalytic enhancement (BMO) (fold over background); higher = more active; k-Seq, kA / k0A0; sequences stand for … in GGGAAUGGAUCCACAUCUACGAAUUC…UUCACUGCAGACUUGACGAAGCUG
A digest of the protocol:
as §1

The subject of another data set is biotinyl-Ile-oxazolone. The data set can be described thus: self-aminoacylation, catalytic enhancement (BIO) (fold over background); higher = more active; k-Seq, kA / k0A0; sequences stand for … in GGGAAUGGAUCCACAUCUACGAAUUC…UUCACUGCAGACUUGACGAAGCUG
The essentials: as §1

For a further data set, the system named is biotinyl-Leu-oxazolone. The data set can be described thus: self-aminoacylation, catalytic enhancement (BLO) (fold over background); higher = more active; k-Seq, kA / k0A0; sequences stand for … in GGGAAUGGAUCCACAUCUACGAAUUC…UUCACUGCAGACUUGACGAAGCUG
A digest of the protocol:
as §1

Another data set deals with biotinyl-Phe-oxazolone. The data set can be described thus: self-aminoacylation, catalytic enhancement (BFO) (fold over background); higher = more active; k-Seq, kA / k0A0; sequences stand for … in GGGAAUGGAUCCACAUCUACGAAUUC…UUCACUGCAGACUUGACGAAGCUG
The essentials:
as §1

This sample holds only a part of the variants without activity.

In the case of “ACGCACCUAGGUCAUCGGGUG [Fam2.2 aminoacylation ribozyme variant]”, the self-aminoacylation in the data set on biotinyl-Val-oxazolone is 3.55; in the data set on biotinyl-Trp-oxazolone, 4.93; in the data set with biotinyl-Met-oxazolone, 4.23; in the data set on biotinyl-Ile-oxazolone, 3.42; with biotinyl-Leu-oxazolone, 3.1; in the data set with biotinyl-Phe-oxazolone it was 29.

As for “CCACACUUCAAGCACUCGAUC [Fam1B.1 aminoacylation ribozyme variant]”, the self-aminoacylation in the data set on biotinyl-Val-oxazolone came to 0.713; with biotinyl-Trp-oxazolone, 0.436; in the data set on biotinyl-Met-oxazolone it was 0.43; with biotinyl-Ile-oxazolone, 0.604; in the data set on biotinyl-Leu-oxazolone, 0.546; in the data set on biotinyl-Phe-oxazolone, 0.872.

“AAGUUUGCUGAUAGUCUCAAG [Fam3.1 aminoacylation ribozyme variant]”: the self-aminoacylation in the data set with biotinyl-Val-oxazolone was 1.13; with biotinyl-Trp-oxazolone, 1.28; with biotinyl-Met-oxazolone, 1.01; with biotinyl-Ile-oxazolone, 1.11; with biotinyl-Leu-oxazolone it was 0.963; with biotinyl-Phe-oxazolone, 1.94.

In the case of “AUUCACCUAGGACAUGGGGUG [Fam2.2 aminoacylation ribozyme variant]”, the self-aminoacylation with biotinyl-Val-oxazolone stood at 3.42; in the data set with biotinyl-Trp-oxazolone it was 5.18; with biotinyl-Met-oxazolone, 5.06; with biotinyl-Ile-oxazolone it was 3.4; in the data set on biotinyl-Leu-oxazolone it was 7.25; with biotinyl-Phe-oxazolone, 42.9.

On to “AUUCACCUAGGUUAUAGGGUG [Fam2.2 aminoacylation ribozyme variant]”, for which the self-aminoacylation with biotinyl-Val-oxazolone was 2.11; in the data set with biotinyl-Trp-oxazolone, 3.5; in the data set on biotinyl-Met-oxazolone it was 3.65; with biotinyl-Ile-oxazolone, 2.23; in the data set on biotinyl-Leu-oxazolone, 4; in the data set on biotinyl-Phe-oxazolone, 14.1.

Turning to “UAGUUUGCUAAUAGCCGCAAG [Fam3.1 aminoacylation ribozyme variant]”, the self-aminoacylation is 1.05 with biotinyl-Val-oxazolone; 1.88 in the data set with biotinyl-Trp-oxazolone; 0.885 in the data set on biotinyl-Met-oxazolone; 1.22 in the data set on biotinyl-Ile-oxazolone; 1.25 in the data set on biotinyl-Leu-oxazolone; 2.71 with biotinyl-Phe-oxazolone.

“AUUCACCUAGGUCCGCGGGUG [Fam2.2 aminoacylation ribozyme variant]”: the self-aminoacylation amounted to 4.58 with biotinyl-Val-oxazolone; 7.69 in the data set on biotinyl-Trp-oxazolone; 9.13 with biotinyl-Met-oxazolone; 5.39 with biotinyl-Ile-oxazolone; 8.76 in the data set on biotinyl-Leu-oxazolone; 50.3 in the data set with biotinyl-Phe-oxazolone.

Turning to “CUUCUUCAAACUAUCGGUCUG [Fam1A.1 aminoacylation ribozyme variant]”, the self-aminoacylation in the data set with biotinyl-Val-oxazolone came out at 1.01; in the data set on biotinyl-Trp-oxazolone it was 0.962; with biotinyl-Met-oxazolone, 0.943; in the data set on biotinyl-Ile-oxazolone, 1.26; in the data set with biotinyl-Leu-oxazolone, 1; with biotinyl-Phe-oxazolone, 1.22.

Consider “AUUACCCUGUACAUCGAGUGA [Fam2.1 aminoacylation ribozyme variant]”, for which the self-aminoacylation came to 6.19 in the data set with biotinyl-Val-oxazolone; 13.2 in the data set on biotinyl-Trp-oxazolone; 12.5 in the data set with biotinyl-Met-oxazolone; 5.18 in the data set with biotinyl-Ile-oxazolone; 11.6 in the data set with biotinyl-Leu-oxazolone; 71.1 with biotinyl-Phe-oxazolone.

Turning to “AUUCCCCUGGUCAUCUAGUGA [Fam2.1 aminoacylation ribozyme variant]”, the self-aminoacylation with biotinyl-Val-oxazolone is 6.23; in the data set on biotinyl-Trp-oxazolone, 13; in the data set on biotinyl-Met-oxazolone, 11.9; with biotinyl-Ile-oxazolone it was 5.92; in the data set with biotinyl-Leu-oxazolone, 11.4; with biotinyl-Phe-oxazolone, 85.5.

“CCACAGUUCAGGCAAUCGGUC [Fam1B.1 aminoacylation ribozyme variant]”: the self-aminoacylation with biotinyl-Val-oxazolone is 2.27; in the data set on biotinyl-Trp-oxazolone, 2.25; in the data set on biotinyl-Met-oxazolone, 1.65; in the data set with biotinyl-Ile-oxazolone, 2.02; in the data set on biotinyl-Leu-oxazolone it was 2.28; in the data set with biotinyl-Phe-oxazolone it was 8.63.

As for “AUUACCCUGGUGAUCCAGUGA [Fam2.1 aminoacylation ribozyme variant]”, the self-aminoacylation is 4.65 with biotinyl-Val-oxazolone; 12.4 in the data set on biotinyl-Trp-oxazolone; 9.84 in the data set on biotinyl-Met-oxazolone; 4.33 with biotinyl-Ile-oxazolone; 9.64 in the data set with biotinyl-Leu-oxazolone; 60.7 in the data set on biotinyl-Phe-oxazolone.

On to “AAGAUUGCUAGUAGUCGCAAG [Fam3.1 aminoacylation ribozyme variant]”, for which the self-aminoacylation is 1.61 with biotinyl-Val-oxazolone; 1.48 with biotinyl-Trp-oxazolone; 1.83 with biotinyl-Met-oxazolone; 1.36 with biotinyl-Ile-oxazolone; 1.89 in the data set on biotinyl-Leu-oxazolone; 1.28 in the data set on biotinyl-Phe-oxazolone.

Take “UAGUUUGCUAAUAGUCGCCAG [Fam3.1 aminoacylation ribozyme variant]”: the self-aminoacylation was found to be 1.2 with biotinyl-Val-oxazolone; 1.16 with biotinyl-Trp-oxazolone; 1.69 in the data set with biotinyl-Met-oxazolone; 1.47 in the data set on biotinyl-Ile-oxazolone; 1.7 in the data set with biotinyl-Leu-oxazolone; 1.74 with biotinyl-Phe-oxazolone.

Take “AAGUAUGCUAAUAGUAGCAAG [Fam3.1 aminoacylation ribozyme variant]”: the self-aminoacylation in the data set with biotinyl-Val-oxazolone turned out to be 1.46; in the data set with biotinyl-Trp-oxazolone, 0.882; in the data set on biotinyl-Met-oxazolone it was 1.22; in the data set with biotinyl-Ile-oxazolone, 1.53; with biotinyl-Leu-oxazolone, 1.54; in the data set with biotinyl-Phe-oxazolone it was 1.46.

For “AAGUUUGCUAAGAUUCGCAAG [Fam3.1 aminoacylation ribozyme variant]”, the self-aminoacylation was 0.867 in the data set on biotinyl-Val-oxazolone; 1.04 with biotinyl-Trp-oxazolone; 0.647 in the data set on biotinyl-Met-oxazolone; 0.986 in the data set on biotinyl-Ile-oxazolone; 0.86 with biotinyl-Leu-oxazolone; 1.13 in the data set with biotinyl-Phe-oxazolone.

On to “CUAUUUCAAAAAAUCGGUCUG [Fam1A.1 aminoacylation ribozyme variant]”, for which the self-aminoacylation in the data set on biotinyl-Val-oxazolone is 0.85; with biotinyl-Trp-oxazolone, 1.73; in the data set on biotinyl-Met-oxazolone, 1; with biotinyl-Ile-oxazolone, 1.13; in the data set with biotinyl-Leu-oxazolone, 1.18; in the data set with biotinyl-Phe-oxazolone, 2.31.

In the case of “CUACGUCAAACAAUCGGUCUC [Fam1A.1 aminoacylation ribozyme variant]”, the self-aminoacylation was found to be 1.04 in the data set on biotinyl-Val-oxazolone; 1.32 in the data set with biotinyl-Trp-oxazolone; 1.09 with biotinyl-Met-oxazolone; 0.998 in the data set with biotinyl-Ile-oxazolone; 0.765 with biotinyl-Leu-oxazolone; 1.24 in the data set with biotinyl-Phe-oxazolone.

With “AUGCACCUAGGUCAUCGGCUG [Fam2.2 aminoacylation ribozyme variant]”, the self-aminoacylation in the data set with biotinyl-Val-oxazolone turned out to be 2.2; in the data set on biotinyl-Trp-oxazolone it was 2.5; in the data set on biotinyl-Met-oxazolone, 2.3; in the data set with biotinyl-Ile-oxazolone, 1.99; with biotinyl-Leu-oxazolone it was 1.83; in the data set with biotinyl-Phe-oxazolone, 11.

For the sequence “AUUGGCCUAGGUCAUCGGGUG [Fam2.2 aminoacylation ribozyme variant]”, the self-aminoacylation in the data set with biotinyl-Val-oxazolone worked out at 14.9; in the data set with biotinyl-Trp-oxazolone, 27.4; with biotinyl-Met-oxazolone it was 36.9; in the data set on biotinyl-Ile-oxazolone, 18.3; in the data set on biotinyl-Leu-oxazolone, 48; with biotinyl-Phe-oxazolone it was 277.

On to “AUUGCCCUGGUCAUCGAGUGA [Fam2.1 aminoacylation ribozyme variant]”, for which the self-aminoacylation in the data set with biotinyl-Val-oxazolone is 23.7; in the data set on biotinyl-Trp-oxazolone, 60; in the data set with biotinyl-Met-oxazolone, 53.1; in the data set on biotinyl-Ile-oxazolone, 20.6; in the data set on biotinyl-Leu-oxazolone it was 51.2; in the data set with biotinyl-Phe-oxazolone, 367.

“CUACUUCAAACGAUCGGUCUG [Fam1A.1 aminoacylation ribozyme variant]”: the self-aminoacylation was 0.763 in the data set on biotinyl-Val-oxazolone; 1.31 in the data set with biotinyl-Trp-oxazolone; 0.677 in the data set with biotinyl-Met-oxazolone; 0.65 in the data set with biotinyl-Ile-oxazolone; 0.68 with biotinyl-Leu-oxazolone; 1.42 in the data set on biotinyl-Phe-oxazolone.

“AUUCACCUAGGUCAUCGAGUG [Fam2.2 aminoacylation ribozyme variant]”: the self-aminoacylation with biotinyl-Val-oxazolone turned out to be 8.76; in the data set with biotinyl-Trp-oxazolone, 8.05; with biotinyl-Met-oxazolone, 14.3; in the data set on biotinyl-Ile-oxazolone it was 10.8; in the data set with biotinyl-Leu-oxazolone, 19.3; in the data set with biotinyl-Phe-oxazolone it was 35.7.

Turning to “CCACACUUCAACCAAUCGGAC [Fam1B.1 aminoacylation ribozyme variant]”, the self-aminoacylation turned out to be 1.02 with biotinyl-Val-oxazolone; 1.26 in the data set on biotinyl-Trp-oxazolone; 0.789 with biotinyl-Met-oxazolone; 0.897 in the data set on biotinyl-Ile-oxazolone; 0.981 in the data set on biotinyl-Leu-oxazolone; 2.28 in the data set on biotinyl-Phe-oxazolone.

On to “AAGUUUGCUAAGAGUCGCAAG [Fam3.1 aminoacylation ribozyme variant]”, for which the self-aminoacylation with biotinyl-Val-oxazolone is 0.741; with biotinyl-Trp-oxazolone, 1.39; in the data set with biotinyl-Met-oxazolone, 0.755; in the data set with biotinyl-Ile-oxazolone, 0.748; in the data set on biotinyl-Leu-oxazolone it was 0.661; in the data set with biotinyl-Phe-oxazolone, 3.23.
